Assay results published in patent US20220406376A1 (MacroGenics, published 2022).

B1: DART-3 (bispecific antibody)
chain 1: not shown
chain 2: DIQMTQSPSTLSASVGDRVTITCRASQSVGYMHWYQQKPGKAPKLLIYDTSKLASGVPSRFSGSGSGTEFTLTISSLQPDDFATYYCFQGSGYPFTFGGGTKLEIKGGGSGGGGQVQLVQSGAEVKKPGASVKVSCKASGYTFTNYGMNWVRQAPGQGLEWMGWINTNIGEPTYTEEFKGRVTMTRDTSISTAYMELSRLRSDDTAVYYCARDDGYGNRVSYWGQGTLVTVSSGGCGGGKVAACKEKVAALKEKVAALKEKVAALKE
notes: also called HER2×RSV control molecule; HER2/neu×RSV control molecule
B2: DART-6 (bispecific antibody, human IgG1, kappa, L234A L235A)
heavy: QVTLRESGPALVKPTQTLTLTCTFSGFSLSTSGMSVGWIRQPPGKALEWLADIWWDDKKDYNPSLKSRLTISKDTSKNQVVLKVTNMDPADTATYYCARSMITNWYFDVWGAGTTVTVSSASTKGPSVFPLAPSSKSTSGGTAALGCLVKDYFPEPVTVSWNSGALTSGVHTFPAVLQSSGLYSLSSVVTVPSSSLGTQTYICNVNHKPSNTKVDKRVEPKSCDKTHTCPPCPAPEAAGGPSVFLFPPKPKDTLMISRTPEVTCVVVDVSHEDPEVKFNWYVDGVEVHNAKTKPREEQYNSTYRVVSVLTVLHQDWLNGKEYKCKVSNKALPAPIEKTISKAKGQPREPQVYTLPPSREEMTKNQVSLSCAVKGFYPSDIAVEWESNGQPENNYKTTPPVLDSDGSFFLVSKLTVDKSRWQQGNVFSCSVMHEALHNRYTQKSLSLSPGK
light: DIQMTQSPSTLSASVGDRVTITCRASQSVGYMHWYQQKPGKAPKLLIYDTSKLASGVPSRFSGSGSGTEFTLTISSLQPDDFATYYCFQGSGYPFTFGGGTKLEIKRTVAAPSVFIFPPSDEQLKSGTASVVCLLNNFYPREAKVQWKVDNALQSGNSQESVTEQDSKDSTYSLSSTLTLSKADYEKHKVYACEVTHQGLSSPVTKSFNRGEC
chain 1: QVTLRESGPALVKPTQTLTLTCTFSGFSLSTSGMSVGWIRQPPGKALEWLADIWWDDKKDYNPSLKSRLTISKDTSKNQVVLKVTNMDPADTATYYCARSMITNWYFDVWGAGTTVTVSSASTKGPSVFPLAPSSKSTSGGTAALGCLVKDYFPEPVTVSWNSGALTSGVHTFPAVLQSSGLYSLSSVVTVPSSSLGTQTYICNVNHKPSNTKVDKRVEPKSCDKTHTCPPCPAPEAAGGPSVFLFPPKPKDTLMISRTPEVTCVVVDVSHEDPEVKFNWYVDGVEVHNAKTKPREEQYNSTYRVVSVLTVLHQDWLNGKEYKCKVSNKALPAPIEKTISKAKGQPREPQVYTLPPSREEMTKNQVSLWCLVKGFYPSDIAVEWESNGQPENNYKTTPPVLDSDGSFFLYSKLTVDKSRWQQGNVFSCSVMHEALHNHYTQKSLSLSPGGGGSGGGSGGGDIQMTQTTSSLSASLGDRVTISCRPSQDISNYLNWYQQKPDGTVKLLIYYTSRLRSGVPSRFSGSGSGTDYSLTISNLEQEDIATYFCQQGDTLPYTFGGGTKLEIKGGGSGGGGQVQLQQPGAELVRPGASVKLSCKASGYTFTSYWINWVKQRPGQGLEWIGNIYPSDSYTNYNQKFKDKATLTVDKSSSTAYMQLSSPTSEDSAVYYCTRDYGSSYSFDYWGQGTTLTVSSGGCGGGEVAALEKEVAALEKEVAALEKEVAALEK
chain 2: DIQMTQTTSSLSASLGDRVTISCRPSQDISNYLNWYQQKPDGTVKLLIYYTSRLRSGVPSRFSGSGSGTDYSLTISNLEQEDIATYFCQQGDTLPYTFGGGTKLEIKGGGSGGGGQVQLQQPGAELVRPGASVKLSCKASGYTFTSYWINWVKQRPGQGLEWIGNIYPSDSYTNYNQKFKDKATLTVDKSSSTAYMQLSSPTSEDSAVYYCTRDYGSSYSFDYWGQGTTLTVSSGGCGGGKVAALKEKVAALKEKVAALKEKVAALKE
notes: also called RSV×CD137 control molecule; CD137×RSV control molecule

Experiments:
[1] = target: T1, HER2/neu on the surface of target cells (N87, JIMT-1, MCF-7, MDA-MB231) (UniProt P04626 23-1255, limits assumed); test: flow cytometry on N87 gastric cancer cells, anti-hFc APC MFI
T1 construct: whole, on cells

[2] = target: T2, CD137 on the surface of cells (activated human T cells; engineered CHO cells) (human, UniProt Q07011 24-255); test: flow cytometry on activated pan T cells gated CD8, anti-hFc APC MFI
T2 construct: whole, on cells; also called human CD137; cell surface expressed CD137
T2 sequence (Q07011 24-255, change not shown): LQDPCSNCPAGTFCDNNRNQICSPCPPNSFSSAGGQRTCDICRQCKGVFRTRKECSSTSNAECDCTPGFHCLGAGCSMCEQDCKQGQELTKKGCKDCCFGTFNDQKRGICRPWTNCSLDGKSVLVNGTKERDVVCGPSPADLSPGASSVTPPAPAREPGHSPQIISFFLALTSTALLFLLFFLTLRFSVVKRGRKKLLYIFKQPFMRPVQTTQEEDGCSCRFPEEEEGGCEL

[3] = target: T1, HER2/neu on the surface of target cells …; test: flow cytometry on JIMT-1 cells, anti-hFc APC MFI
Procedure: (§1) CD137×TA Binding Molecules, DART-B, DART-D, DART-G and the control molecules DART-3 and DART-6 were additionally evaluated for their ability to bind to HER2/neu expressed on N87 cells (FIG. 13A) and JIMT-1 cells (FIG. 13B). For such evaluation, 100 μL of HER2/neu expressing target cells (1.0×1⁰⁶ cells/mL) and 100 μL of serially diluted (5- or 10-fold dilutions) test article (bispecific diabody) were added to each well of microtiter assay plate(s), mixed and incubated at RT for 45 min. The cells were washed with FACS Buffer and secondary antibody (anti-human-Fc region-APC) was then added to each well; mixed and incubated at RT for 30 min. Cells were washed and resuspended in 100 μL FACS Buffer and analyzed by flow cytometry (BD LSR Fortessa or FACSCanto 11) for cell event collection. Data analysis were performed via FloJo v10.

[4] = target: T1, HER2/neu on the surface of target cells …; test: flow cytometry on N87 cells, anti-hFc APC MFI
Procedure: as §1

[5] = target: T2, CD137 on the surface of cells …; test: flow cytometry on activated CD8+ T cells (CD8 FITC), anti-hFc APC MFI
[6] = target: T2, CD137 on the surface of cells …; test: flow cytometry on CD137-expressing CHO cells (CHO/137), anti-hFc APC MFI
[7] = target: T2, CD137 on the surface of cells …; test: as above; remark: listed apart in the source
[8] = target: T2, CD137 on the surface of cells …; test: flow cytometry on activated pan T cells gated CD8, anti-hFc APC MFI; remark: listed apart in the source
[9] = target: T2, CD137 on the surface of cells …; test: flow cytometry on activated CD8+ T cells (donor D53781, CD8 FITC), anti-hFc APC MFI

Binder	EC50 (read off the curve) [1] [nM]	binding result [2]	EC50 (read off the curve) [3] [µg/mL]	EC50 (read off the curve) [4] [µg/mL]	binding result [1]	EC50 (read off the curve) [5] [µg/mL]	EC50 (read off the curve) [6] [µg/mL]	EC50 (read off the curve) [2] [nM]	EC50 (read off the curve) [7] [µg/mL]	EC50 (read off the curve) [8] [nM]	EC50 (read off the curve) [9] [µg/mL]
B1	~0.5	no binding	~0.03	~0.05							
B2					no binding	~0.02	~0.02	~0.2	~0.02	~0.1	~0.02
